{"source": "paper PMC13456277", "about": "“Direct interaction between RSV polymerase L and active Rab11a mediates viral ribonucleoprotein transport to assembly sites” (PLOS Pathogens, 2026)", "binders": {"B1": {"name": "GST-Rab11a(Q70L) CA (natural protein)", "chain": "MGTRDDEYDYLFKVVLIGDSGVGKSNLLSRFTRNEFNLESKSTIGVEFATRSIQVDGKTIKAQIWDTAGLERYRAITSAYYRGAVGALLVYDIAKHLTYENVERWLKELRDHADSNIVIMLVGNKSDLRHLRAVPTDEARAFAEKNGLSFIETSALDSTNVEAAFQTILTEIYRIVSQKQMSDRRENDMSPSNNVVPIHVPPTTENKPKVQCCQNI"}, "B2": {"name": "GST-Rab11a WT (natural protein, human, UniProt P62491 1-216, looked up)", "chain": "B1 chain with L70Q", "notes": "human Rab11a; pGEX 4T-3; Used with or without 1 mM GTP; also called GST-Rab11a wild-type; source: E. coli BL21, purified (Glutathione Sepharose 4B, SEC Superdex 200); not shown: GST, N-terminal, kept"}}, "key": {"[1]": {"molecular_target": "RSV L-Twin-Strep-tag + P-his (human respiratory syncytial virus, UniProt P28887 1-2165; P03421 1-241)", "assay": "BLI"}, "[2]": {"molecular_target": "T1, RSV L-Twin-Strep-tag + P-his (human respiratory syncytial virus, UniProt P28887 1-2165; P03421 1-241)", "T1 construct": "RSV large polymerase L, codon-optimized; RSV phosphoprotein P, codon-optimized; L as in m21; also called L-P^-his; L-P complexes; source: Sf9, baculovirus, purified (Strep-Trap XT, SEC Superose 6); not shown: Twin-Strep-tag, C-terminal, kept; His6, C-terminal, kept", "assay": "BLI; Octet RED 384, 25°C; L-Twin-Strep-tag + P-his loaded on Ni-NTA sensors; two-fold dilutions of GST-Rab11a (with 1 mM GTP) or GST-Rab11a CA from 50 nM to 3.2 µM; association 60 min to steady state, dissociation 5 min; apparent KD from steady-state responses, one-site model, double referenced", "settings": "both partners purified"}}, "note": "Where a chain is given by its changes, count along the chain named. Numbers in names are those of the source."}
{"binder": "B1", "values": [{"measurement": "Kd", "setting": "[1]", "result": 1200, "unit": "nM"}]}
{"binder": "B2", "values": [{"measurement": "Kd", "setting": "[2]", "result": 300, "unit": "nM"}]}
